{"source": "paper PMC11094075", "about": "“Ago2/CAV1 interaction potentiates metastasis via controlling Ago2 localization and miRNA action” (EMBO Reports, 2024)", "biological_target": "T1, HA-tagged wild-type Ago2 (HA-Ago2Wt), in Ago2-knockout A549 and HCC1806 cells (human, UniProt Q9UKV8 1-859)", "T1 construct": "Argonaute-2 (Ago2), human; source: lentiviral (pLV-EF1a-HA-Ago2-Blast), Ago2-knockout A549 and HCC1806 cells, in lysate; not shown: HA, N-terminal, kept", "T1 sequence (Q9UKV8 whole entry)": "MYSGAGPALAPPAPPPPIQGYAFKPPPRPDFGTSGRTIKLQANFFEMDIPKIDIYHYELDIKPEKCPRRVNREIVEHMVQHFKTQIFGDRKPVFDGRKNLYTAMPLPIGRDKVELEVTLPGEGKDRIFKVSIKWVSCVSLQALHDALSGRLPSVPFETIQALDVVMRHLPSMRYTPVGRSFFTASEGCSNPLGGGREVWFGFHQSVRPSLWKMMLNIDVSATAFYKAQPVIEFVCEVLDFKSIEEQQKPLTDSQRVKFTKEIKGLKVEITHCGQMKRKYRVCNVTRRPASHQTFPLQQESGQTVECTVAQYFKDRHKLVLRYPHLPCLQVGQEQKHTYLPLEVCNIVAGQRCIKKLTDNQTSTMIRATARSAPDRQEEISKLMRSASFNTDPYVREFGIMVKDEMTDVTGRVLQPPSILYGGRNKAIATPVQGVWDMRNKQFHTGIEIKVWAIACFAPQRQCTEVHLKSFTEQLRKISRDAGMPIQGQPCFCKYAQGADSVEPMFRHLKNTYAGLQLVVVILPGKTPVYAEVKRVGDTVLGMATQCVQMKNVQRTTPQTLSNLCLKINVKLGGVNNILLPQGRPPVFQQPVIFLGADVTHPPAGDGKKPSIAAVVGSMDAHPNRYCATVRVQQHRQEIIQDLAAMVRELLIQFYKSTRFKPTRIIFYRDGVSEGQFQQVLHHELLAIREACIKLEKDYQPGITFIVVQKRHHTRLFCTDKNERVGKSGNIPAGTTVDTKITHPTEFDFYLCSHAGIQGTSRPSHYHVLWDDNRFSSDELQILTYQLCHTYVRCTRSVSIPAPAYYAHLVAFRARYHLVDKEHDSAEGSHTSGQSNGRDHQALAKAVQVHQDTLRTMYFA", "assay": "co-IP; Ago2-knockout A549 and HCC1806 cells expressing HA-Ago2Wt, HA-Ago2K212A or HA-Ago2K212R; IP with anti-HA, blot for endogenous CAV1; ratio pCAV1/pHA; vehicle or TM (10 µM)", "conditions": "partners not purified"}
{"protein": "Caveolin-1 (CAV1), endogenous (natural protein, UniProt Q03135 1-178, looked up, Caveolin-1 (CAV1), human; source: endogenous) MSGGKYVDSEGHLYTVPIREQGNIYKPNNKAMADELSEKQVYDAHTKEIDLVNRDPKHLNDDVVKIDFEDVIAEPEGTHSFDGIWKASFTTFTVTKYWFYRLLSALFGIPMALIWGIYFAILSFLHIWAVVPCIKSFLIEIQCISRVYSIYVHTVCDPLFEAVGKIFSNVRINLQKEI", "values": [{"measurement": "percent of pCAV1/pHA left in cells treated with TM (10 µM) against vehicle", "result": "~49", "unit": "%"}]}
